Usually Kd stands for a measure of binding affinity in units of concentration. Higher therefore signals weaker binding. In general, stoichiometry N refers to a count of units in the complex or per binding partner.

The source of these data is publication PMC10276003, “Regulation of microRNA expression by the adaptor protein GRB2” (Scientific Reports, 2023).

Holding throughout (details): both partners purified
Test [1] addresses T1, His-tagged GRB2 (UniProt P62993 1-217).
T1 construct: For the MST with DICER1^CT and AGO2 the text writes only GRB2; also called His-GRB2
Put plainly: ITC; 1.2 mM peptide titrated into 80 uM His-tagged GRB2; 25 C; 20 mM Tris-HCl pH 8, 150 mM NaCl, 1 mM beta-mercaptoethanol. On the technique in general: In ITC the heat of successive injections is recorded.

Test [2] has as its target T2, AGO2 pre-incubated with GRB2 (GRB2-AGO2 complex) (human | , UniProt Q9UKV8 1-859; P62993 1-217, labelled with Atto 488 NHS ester).
T2 construct: Argonaute 2 (AGO2), human; as m20; as m12; The complex was not isolated: labelled AGO2 (100 nM) stood with an excess of GRB2; source: E. coli BL21(DE3), both purified; AGO2 incubated with 25 or 50 uM GRB2 before the MST
Put plainly: MST; 2.29 to 75,000 nM unlabelled DICER1^CT with 100 nM Atto 488-labelled AGO2 pre-incubated with 50 uM GRB2; 20 mM HEPES, 150 mM NaCl, 1 mM TCEP pH 7.5.

Test [3] concerns the target T3, AGO2 (purified as GST-AGO2, GST cleaved) (human, UniProt Q9UKV8 1-859, labelled with Atto 488 NHS ester).
T3 construct: Argonaute 2 (AGO2), human; source: E. coli BL21(DE3), purified (RNase, glutathione superflow resin, Superdex 75; GST cleaved with thrombin)
Put plainly: MST; 2.29 to 75,000 nM unlabelled DICER1^CT with 100 nM Atto 488-labelled AGO2, no GRB2; 20 mM HEPES, 150 mM NaCl, 1 mM TCEP pH 7.5.

Test [4] deals with T2, AGO2 pre-incubated with GRB2 (GRB2-AGO2 …). Put plainly: MST; 2.29 to 75,000 nM unlabelled DICER1^CT with 100 nM Atto 488-labelled AGO2 pre-incubated with 25 uM GRB2; 20 mM HEPES, 150 mM NaCl, 1 mM TCEP pH 7.5.
Test [5] deals with T1, His-tagged GRB2. Put plainly: ITC; 500 uM MBP-tagged AGO2 domain titrated into 20 uM His-tagged GRB2; 25 C; 20 mM Tris-HCl pH 8, 150 mM NaCl, 10% glycerol, 1 mM beta-mercaptoethanol; one-site model with n fixed at 1.

T1 sequence (P62993 whole entry): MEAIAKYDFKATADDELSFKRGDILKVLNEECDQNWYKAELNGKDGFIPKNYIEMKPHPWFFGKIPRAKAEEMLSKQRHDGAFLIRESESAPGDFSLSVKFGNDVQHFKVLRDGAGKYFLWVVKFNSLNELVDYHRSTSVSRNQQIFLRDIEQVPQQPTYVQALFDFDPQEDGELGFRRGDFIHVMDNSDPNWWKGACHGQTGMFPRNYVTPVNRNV
T2 sequence (Q9UKV8 whole entry, chain 1 of 2): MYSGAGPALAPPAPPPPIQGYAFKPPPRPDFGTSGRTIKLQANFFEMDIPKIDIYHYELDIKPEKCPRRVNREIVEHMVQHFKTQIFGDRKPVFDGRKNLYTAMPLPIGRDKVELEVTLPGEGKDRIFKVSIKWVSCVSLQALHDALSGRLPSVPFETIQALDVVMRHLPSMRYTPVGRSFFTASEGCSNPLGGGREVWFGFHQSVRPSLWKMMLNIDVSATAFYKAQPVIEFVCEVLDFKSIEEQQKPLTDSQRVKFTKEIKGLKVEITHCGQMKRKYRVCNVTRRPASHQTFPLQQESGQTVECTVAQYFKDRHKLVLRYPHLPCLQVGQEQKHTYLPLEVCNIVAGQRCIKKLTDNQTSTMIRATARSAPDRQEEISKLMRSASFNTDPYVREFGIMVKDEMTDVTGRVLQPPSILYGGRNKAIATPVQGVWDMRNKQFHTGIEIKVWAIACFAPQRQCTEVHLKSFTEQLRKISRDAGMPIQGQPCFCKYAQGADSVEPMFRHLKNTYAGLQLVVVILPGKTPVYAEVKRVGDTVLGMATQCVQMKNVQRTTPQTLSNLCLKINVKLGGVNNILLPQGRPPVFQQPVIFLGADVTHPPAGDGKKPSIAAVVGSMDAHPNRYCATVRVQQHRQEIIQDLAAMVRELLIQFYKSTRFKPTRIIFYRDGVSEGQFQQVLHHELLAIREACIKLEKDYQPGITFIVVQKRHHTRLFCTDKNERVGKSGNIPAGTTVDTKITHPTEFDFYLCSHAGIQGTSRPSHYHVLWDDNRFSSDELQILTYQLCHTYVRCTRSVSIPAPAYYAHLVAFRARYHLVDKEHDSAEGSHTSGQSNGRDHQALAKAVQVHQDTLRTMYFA
T2 sequence (P62993 whole entry, chain 2 of 2): as the sequence (P62993 whole entry) above
T3 sequence (Q9UKV8 whole entry): as the sequence (Q9UKV8 whole entry, chain 1 of 2) above

B1: PRM-containing peptide from the AGO2 PAZ domain (residues 317-333) (peptide)
peptide: KLVLRYPHLPCLQVGQE
notes: Argonaute 2 (AGO2), human, PAZ domain, residues 317-333; also called peptide spanning the proline-rich motif 323PHLP326
In the test with His-tagged GRB2 [1], B1 yielded a Kd of 4.27 ± 1.17 µM.

B2: C-terminal domain of DICER1 (DICER1^CT, residues 1276-1922) (domain or fragment, UniProt Q9UPY3 1276-1922, looked up)
chain: DSEQSPSIGYSSRTLGPNPGLILQALTLSNASDGFNLERLEMLGDSFLKHAITTYLFCTYPDAHEGRLSYMRSKKVSNCNLYRLGKKKGLPSRMVVSIFDPPVNWLPPGYVVNQDKSNTDKWEKDEMTKDCMLANGKLDEDYEEEDEEEESLMWRAPKEEADYEDDFLEYDQEHIRFIDNMLMGSGAFVKKISLSPFSTTDSAYEWKMPKKSSLGSMPFSSDFEDFDYSSWDAMCYLDPSKAVEEDDFVVGFWNPSEENCGVDTGKQSISYDLHTEQCIADKSIADCVEALLGCYLTSCGERAAQLFLCSLGLKVLPVIKRTDREKALCPTRENFNSQQKNLSVSCAAASVASSRSSVLKDSEYGCLKIPPRCMFDHPDADKTLNHLISGFENFEKKINYRFKNKAYLLQAFTHASYHYNTITDCYQRLEFLGDAILDYLITKHLYEDPRQHSPGVLTDLRSALVNNTIFASLAVKYDYHKYFKAVSPELFHVIDDFVQFQLEKNEMQGMDSELRRSEEDEEKEEDIEVPKAMGDIFESLAGAIYMDSGMSLETVWQVYYPMMRPLIEKFSANVPRSPVRELLEMEPETAKFSPAERTYDGKVRVTVEVVGKGKFKGVGRSYRIAKSAAARRALRSLKANQPQVPNS
modifications: labelled with Atto 488 NHS ester in the MST with GRB2; unlabelled in the MST with AGO2
notes: DICER1, residues 1276-1922, with the RNase III domains; also called DICER1 C-terminal region
As to B2, the Kd in test [2] came to 4.6 ± 0.6 µM; in test [3] it was 17.6 ± 1.7 µM; in test [4] it was 7.9 ± 1.3 µM.

B3: MBP-tagged AGO2 PAZ domain (residues 235-348) (domain or fragment)
chain: not shown
notes: Argonaute 2 (AGO2), human, PAZ domain, residues 235-348, in pMAL-c5x; The methods say that RNA was left in the PAZ preparation; also called MBP-PAZ; PAZ WT; source: E. coli BL21(DE3), purified (MBPTrap HP, SEC); not shown: MBP, N-terminal, kept
Turning to B3, in the test with His-tagged GRB2 [5], the Kd amounted to 0.585 ± 0.061 µM and the “stoichiometry N” value turned out to be 1.
